From patent publication US20240288446

Molecular target: T1, Human Glu-plasminogen
T1 chain: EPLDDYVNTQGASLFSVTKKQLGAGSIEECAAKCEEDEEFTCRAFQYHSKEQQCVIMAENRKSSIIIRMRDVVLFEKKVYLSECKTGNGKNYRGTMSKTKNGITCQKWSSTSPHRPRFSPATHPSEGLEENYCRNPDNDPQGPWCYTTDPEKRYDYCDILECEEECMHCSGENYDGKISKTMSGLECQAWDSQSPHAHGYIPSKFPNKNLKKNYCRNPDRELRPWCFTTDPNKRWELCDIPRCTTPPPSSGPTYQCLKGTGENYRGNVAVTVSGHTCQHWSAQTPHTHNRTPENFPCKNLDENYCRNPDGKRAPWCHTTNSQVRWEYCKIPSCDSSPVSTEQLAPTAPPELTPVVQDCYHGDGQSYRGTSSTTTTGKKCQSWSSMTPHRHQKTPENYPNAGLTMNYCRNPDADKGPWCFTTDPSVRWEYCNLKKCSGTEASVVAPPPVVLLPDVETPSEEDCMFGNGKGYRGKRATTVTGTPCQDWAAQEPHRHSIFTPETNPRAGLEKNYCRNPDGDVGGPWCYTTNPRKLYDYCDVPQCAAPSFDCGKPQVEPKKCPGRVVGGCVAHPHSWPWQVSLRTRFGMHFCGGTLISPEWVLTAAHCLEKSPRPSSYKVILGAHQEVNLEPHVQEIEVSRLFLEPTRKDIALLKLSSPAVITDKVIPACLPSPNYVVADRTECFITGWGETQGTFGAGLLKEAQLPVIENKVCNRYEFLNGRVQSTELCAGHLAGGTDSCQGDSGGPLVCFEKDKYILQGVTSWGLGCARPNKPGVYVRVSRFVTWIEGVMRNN

B1: Human tissue plasminogen activator (protein)
chain: SYQVICRDEKTQMIYQQHQSWLRPVLRSNRVEYCWCNSGRAQCHSVPVKSCSEPRCFNGGTCQQALYFSDFVCQCPEGFAGKCCEIDTRATCYEDQGISYRGTWSTAESGAECTNWNSSALAQKPYSGRRPDAIRLGLGNHNYCRNPDRDSKPWCYVFKAGKYSSEFCSTPACSEGNSDCYFGNGSAYRGTHSLTESGASCLPWNSMILIGKVYTAQNPSAQALGLGKHNYCRNPDGDAKPWCHVLKNRRLTWEYCDVPSCSTCGLRQYSQPQFRIKGGLFADIASHPWQAAIFAKHRRSPGERFLCGGILISSCWILSAAHCFQERFPPHHLTVILGRTYRVVPGEEEQKFEVEKYIVHKEFDDDTYDNDIALLQLKSDSSRCAQESSVVRTVCLPPADLQLPDWTECELSGYGKHEALSPFYSERLKEAHVRLYPSSRCTSQHLLNRTVTDNMLCAGDTRSGGPQANLHDACQGDSGGPLVCLNDGRMTLVGIISWGLGCGQKDVPGVYTKVTNYLDWIRDNMRP
conversion of plasminogen into plasmin (plasmin-selective chromogenic substrate): The time- and concentration-dependent conversion of plasminogen into plasmin at the fibrin-NETs lattice was reduced as compared to fibrin alone
